# Data taken from paper PMC4695401 (Chemistry & biology, 2015).
# Ends that are not written are not given here. PEG = not defined here
# Target: BRD-containing DNA-PKcs fragment (aa1878-2700) (UniProt P78527 1878-2700)
# Test: pull-down
# Sequence of BRD-containing DNA-PKcs fragment (aa1878-2700) (P78527 1878-2700): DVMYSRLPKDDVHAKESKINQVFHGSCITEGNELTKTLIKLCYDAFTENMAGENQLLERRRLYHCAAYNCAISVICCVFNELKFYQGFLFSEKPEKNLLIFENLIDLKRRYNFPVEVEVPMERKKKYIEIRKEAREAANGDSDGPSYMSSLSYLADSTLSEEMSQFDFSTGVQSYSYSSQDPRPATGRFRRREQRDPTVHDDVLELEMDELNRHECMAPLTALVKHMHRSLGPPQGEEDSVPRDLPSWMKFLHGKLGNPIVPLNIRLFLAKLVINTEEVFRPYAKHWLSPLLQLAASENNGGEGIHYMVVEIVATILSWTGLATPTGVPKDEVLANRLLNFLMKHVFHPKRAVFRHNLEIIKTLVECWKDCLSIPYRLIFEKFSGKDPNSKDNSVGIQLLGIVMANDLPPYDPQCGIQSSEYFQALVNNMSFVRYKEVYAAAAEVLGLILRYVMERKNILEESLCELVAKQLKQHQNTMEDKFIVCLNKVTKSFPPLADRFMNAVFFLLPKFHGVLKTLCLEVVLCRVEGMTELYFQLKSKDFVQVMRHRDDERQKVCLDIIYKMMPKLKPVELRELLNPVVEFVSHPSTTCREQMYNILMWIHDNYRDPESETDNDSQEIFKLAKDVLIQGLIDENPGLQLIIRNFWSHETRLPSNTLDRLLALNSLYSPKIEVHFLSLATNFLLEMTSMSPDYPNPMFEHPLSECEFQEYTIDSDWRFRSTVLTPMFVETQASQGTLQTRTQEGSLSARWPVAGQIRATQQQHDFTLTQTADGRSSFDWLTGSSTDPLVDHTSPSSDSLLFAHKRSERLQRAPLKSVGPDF
binder,measurement,value
SGRGK(Ac)TGGKARAKAKSR-{PEG-biotin} (reading uncertain) [H2AX K5ac-containing peptide],binding result,binds
